Here are results for three molecules from patent US20140274782A1, “AFFINITY REAGENTS AND METHODS FOR DETECTION, PURIFICATION, AND PROTEOMIC ANALYSIS OF METHYLATED PROTEINS” (The Board of Trustees of the Leland Stanford Junior …, priority 2013, published 2014).

In one experiment the test system is 3×MBT domain of L3MBTL1. As to the kind of experiment: Triple SILAC pull-down, 3xMBT/3xMBTD355N ratio (cytoplasmic, nuclear and chromatin fractions of 293T cells).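 As to all read-outs here: proteins quantified with MaxQuant, requiring at least two unique peptides and quantification in both label directions, normalized to the mean of proteins from a digested loading control.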 In kind it is binding, human. The following applies: for 3xMBT/D355N UNC Heavy: experiment with UNC0638 in heavy SILAC media; for 3xMBT/D355N UNC Light: experiment with UNC0638 in light SILAC media.
The next experiment deals with T1, G9a and GLP (Homo sapiens, UniProt Q96KQ7+Q9H9B1).
T1 sequence (Q96KQ7 2-1210 limits assumed): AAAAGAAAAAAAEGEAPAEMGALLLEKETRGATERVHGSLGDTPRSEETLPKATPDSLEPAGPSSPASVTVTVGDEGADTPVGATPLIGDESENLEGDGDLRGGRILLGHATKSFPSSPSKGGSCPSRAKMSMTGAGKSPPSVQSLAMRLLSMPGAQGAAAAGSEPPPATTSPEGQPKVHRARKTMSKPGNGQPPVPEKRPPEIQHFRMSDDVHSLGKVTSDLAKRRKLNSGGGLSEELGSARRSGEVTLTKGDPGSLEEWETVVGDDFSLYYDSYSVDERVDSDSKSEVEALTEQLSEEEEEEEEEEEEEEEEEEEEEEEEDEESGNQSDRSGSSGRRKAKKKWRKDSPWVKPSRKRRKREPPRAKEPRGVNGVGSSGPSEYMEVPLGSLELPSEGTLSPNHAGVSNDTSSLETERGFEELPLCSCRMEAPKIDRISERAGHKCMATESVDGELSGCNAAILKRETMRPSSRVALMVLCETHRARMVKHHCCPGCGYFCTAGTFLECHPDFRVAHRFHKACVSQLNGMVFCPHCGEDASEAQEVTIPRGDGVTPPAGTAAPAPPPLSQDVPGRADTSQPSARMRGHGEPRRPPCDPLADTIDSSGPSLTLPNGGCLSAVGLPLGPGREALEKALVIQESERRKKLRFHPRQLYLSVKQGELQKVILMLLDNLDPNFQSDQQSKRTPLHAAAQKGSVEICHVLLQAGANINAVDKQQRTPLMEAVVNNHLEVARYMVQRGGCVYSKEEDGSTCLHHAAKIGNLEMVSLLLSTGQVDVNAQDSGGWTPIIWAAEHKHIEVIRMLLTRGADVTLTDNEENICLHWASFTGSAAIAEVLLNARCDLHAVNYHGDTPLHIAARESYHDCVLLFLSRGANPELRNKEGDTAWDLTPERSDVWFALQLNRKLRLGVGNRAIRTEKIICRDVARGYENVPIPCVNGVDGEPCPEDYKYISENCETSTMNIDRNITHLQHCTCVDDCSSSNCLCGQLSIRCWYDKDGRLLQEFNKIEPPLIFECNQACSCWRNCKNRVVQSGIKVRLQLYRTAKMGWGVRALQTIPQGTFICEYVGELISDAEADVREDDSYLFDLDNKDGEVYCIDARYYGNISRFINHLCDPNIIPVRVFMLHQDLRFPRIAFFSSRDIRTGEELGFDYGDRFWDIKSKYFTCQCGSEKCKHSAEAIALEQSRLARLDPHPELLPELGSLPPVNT
T1 sequence (Q9H9B1 2-1298 limits assumed): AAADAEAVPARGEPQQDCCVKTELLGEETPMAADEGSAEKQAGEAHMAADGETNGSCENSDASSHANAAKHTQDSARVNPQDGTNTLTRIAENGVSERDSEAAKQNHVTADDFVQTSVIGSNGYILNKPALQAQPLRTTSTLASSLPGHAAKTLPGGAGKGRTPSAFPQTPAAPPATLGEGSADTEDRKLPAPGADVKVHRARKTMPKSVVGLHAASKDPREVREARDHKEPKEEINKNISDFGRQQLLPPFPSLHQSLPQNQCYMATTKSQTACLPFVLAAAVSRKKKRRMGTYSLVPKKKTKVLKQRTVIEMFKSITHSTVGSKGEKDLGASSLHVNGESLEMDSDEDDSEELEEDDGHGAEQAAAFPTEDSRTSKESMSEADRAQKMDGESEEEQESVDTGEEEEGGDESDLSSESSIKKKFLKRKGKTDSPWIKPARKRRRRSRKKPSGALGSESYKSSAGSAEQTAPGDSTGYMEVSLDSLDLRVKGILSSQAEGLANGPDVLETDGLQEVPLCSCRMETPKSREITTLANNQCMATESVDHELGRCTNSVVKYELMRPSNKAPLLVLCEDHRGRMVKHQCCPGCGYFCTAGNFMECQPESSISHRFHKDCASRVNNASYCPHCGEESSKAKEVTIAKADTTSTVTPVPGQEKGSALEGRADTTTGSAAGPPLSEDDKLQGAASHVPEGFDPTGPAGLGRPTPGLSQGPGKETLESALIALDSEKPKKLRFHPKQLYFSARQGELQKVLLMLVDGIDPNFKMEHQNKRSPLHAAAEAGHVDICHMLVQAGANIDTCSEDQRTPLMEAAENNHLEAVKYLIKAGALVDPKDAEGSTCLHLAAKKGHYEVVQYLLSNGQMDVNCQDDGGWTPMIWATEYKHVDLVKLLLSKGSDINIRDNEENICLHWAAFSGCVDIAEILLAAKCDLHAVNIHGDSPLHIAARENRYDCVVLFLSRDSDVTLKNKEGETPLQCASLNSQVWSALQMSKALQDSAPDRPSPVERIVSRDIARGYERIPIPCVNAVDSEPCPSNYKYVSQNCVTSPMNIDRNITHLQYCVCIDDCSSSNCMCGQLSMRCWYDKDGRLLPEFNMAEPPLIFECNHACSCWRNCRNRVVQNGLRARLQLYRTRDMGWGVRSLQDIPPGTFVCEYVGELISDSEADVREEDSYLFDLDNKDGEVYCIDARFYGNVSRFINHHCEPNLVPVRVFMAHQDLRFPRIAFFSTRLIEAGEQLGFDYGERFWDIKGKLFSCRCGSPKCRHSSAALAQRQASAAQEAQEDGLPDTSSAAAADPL
As to the kind of experiment: Triple SILAC pull-down after UNC0638 treatment of 293T cells, DMSO/UNC0638 ratio of protein captured by 3×MBT.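 As to all read-outs here: mass spectrometry (Q-Exactive) SILAC quantitation, DMSO/UNC0638 ratio computed after subtracting 3×MBTD355N mutant pull-down background, only proteins with at least twofold 3×MBT over mutant signal considered.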 In kind it is cell-based. The settings on record: for Relative to UNC0638 UNC Heavy: UNC0638 in heavy SILAC media; for Relative to UNC0638 UNC Light: UNC0638 in light SILAC media; for Relative to UNC0638 Average: average of UNC Light and UNC Heavy experiments. Also on record: endogenous in cells; host or cells: HEK 293T.

Setting [1] is: SILAC ratio 3xMBT vs 3xMBTD355N pull-down, 293T cells, all values in log base 2.
Where [2] appears, read: SILAC ratio DMSO relative to UNC0638, pull-down with 3xMBT, all values in log base 2.
[3] abbreviates: SILAC ratio, pull-down 3xMBT vs 3xMBTD355N.
Where [4] appears, read: SILAC ratio DMSO/UNC0638 of protein pulled down with 3xMBT.

B1: CSRP2 (protein, UniProt Q16527 1-193, looked up)
Cysteine and glycine-rich …: MPVWGGGNKCGACGRTVYHAEEVQCDGRSFHRCCFLCMVCRKNLDSTTVAIHDEEIYCKSCYGKKYGPKGYGYGQGAGTLNMDRGERLGIKPESVQPHRPTTNPNTSKFAQKYGGAEKCSRCGDSVYAAEKIIGAGKPWHKNCFRCAKCGKSLESTTLTEKEGEIYCKGCYAKNFGPKGFGYGQGAGALVHAQ
With B1, in the experiment on 3×MBT domain of L3MBTL1 (setting [1]), the “3xMBT/D355N UNC Heavy” value came out at 1.27 log base 2 and the “3xMBT/D355N UNC Light” value was 1.96 log base 2. For the same molecule, in the experiment with G9a and GLP (setting [2]), the “Relative to UNC0638 UNC Heavy” value is −0.58 log base 2 and the “Relative to UNC0638 UNC Light” value is on record as −0.49 log base 2. In addition, the “Relative to UNC0638 Average” value with G9a and GLP (all values in log base 2) is −0.54 log base 2.

B2: DDX46 (protein, UniProt Q7L014 2-1031, looked up)
Probable ATP-dependent RNA …: GRESRHYRKRSASRGRSGSRSRSRSPSDKRSKRGDDRRSRSRDRDRRRERSRSRDKRRSRSRDRKRLRRSRSRERDRSRERRRSRSRDRRRSRSRSRGRRSRSSSPGNKSKKTENRSRSKEKTDGGESSKEKKKDKDDKEDEKEKDAGNFDQNKLEEEMRKRKERVEKWREEQRKKAMENIGELKKEIEEMKQGKKWSLEDDDDDEDDPAEAEKEGNEMEGEELDPLDAYMEEVKEEVKKFNMRSVKGGGGNEKKSGPTVTKVVTVVTTKKAVVDSDKKKGELMENDQDAMEYSSEEEEVDLQTALTGYQTKQRKLLEPVDHGKIEYEPFRKNFYVEVPELAKMSQEEVNVFRLEMEGITVKGKGCPKPIKSWVQCGISMKILNSLKKHGYEKPTPIQTQAIPAIMSGRDLIGIAKTGSGKTIAFLLPMFRHIMDQRSLEEGEGPIAVIMTPTRELALQITKECKKFSKTLGLRVVCVYGGTGISEQIAELKRGAEIIVCTPGRMIDMLAANSGRVTNLRRVTYVVLDEADRMFDMGFEPQVMRIVDNVRPDRQTVMFSATFPRAMEALARRILSKPIEVQVGGRSVVCSDVEQQVIVIEEEKKFLKLLELLGHYQESGSVIIFVDKQEHADGLLKDLMRASYPCMSLHGGIDQYDRDSIINDFKNGTCKLLVATSVAARGLDVKHLILVVNYSCPNHYEDYVHRAGRTGRAGNKGYAYTFITEDQARYAGDIIKALELSGTAVPPDLEKLWSDFKDQQKAEGKIIKKSSGFSGKGFKFDETEQALANERKKLQKAALGLQDSDDEDAAVDIDEQIESMFNSKKRVKDMAAPGTSSVPAPTAGNAEKLEIAKRLALRINAQKNLGIESQDVMQQATNAILRGGTILAPTVSAKTIAEQLAEKINAKLNYVPLEKQEEERQDGGQNESFKRYEEELEINDFPQTARWKVTSKEALQRISEYSEAAITIRGTYFPPGKEPKEGERKIYLAIESANELAVQKAKAEITRLIKEELIRLQNSYQPTNKGRYKVL
For the molecule B2, in the experiment with 3×MBT domain of L3MBTL1 (setting [3]), the “3xMBT/D355N UNC Heavy” value came to 2.10 log base 2 and the “3xMBT/D355N UNC Light” value came out at 2.67 log base 2. Moreover, in the experiment with G9a and GLP (setting [4]), the “Relative to UNC0638 UNC Heavy” value came out at 0.53 log base 2 and the “Relative to UNC0638 UNC Light” value came to 0.33 log base 2. The “Relative to UNC0638 Average” value in the experiment with G9a and GLP is on record as 0.43 log base 2. Further, the “Candidate G9a/GLP target” value with G9a and GLP (reduced association with 3xMBT after UNC0638 treatment) was “✓”.

B3: CTNND1 (protein, UniProt O60716 1-968, looked up)
Catenin delta-1: MDDSEVESTASILASVKEQEAQFEKLTRALEEERRHVSAQLERVRVSPQDANPLMANGTLTRRHQNGRFVGDADLERQKFSDLKLNGPQDHSHLLYSTIPRMQEPGQIVETYTEEDPEGAMSVVSVETSDDGTTRRTETTVKKVVKTVTTRTVQPVAMGPDGLPVDASSVSNNYIQTLGRDFRKNGNGGPGPYVGQAGTATLPRNFHYPPDGYSRHYEDGYPGGSDNYGSLSRVTRIEERYRPSMEGYRAPSRQDVYGPQPQVRVGGSSVDLHRFHPEPYGLEDDQRSMGYDDLDYGMMSDYGTARRTGTPSDPRRRLRSYEDMIGEEVPSDQYYWAPLAQHERGSLASLDSLRKGGPPPPNWRQPELPEVIAMLGFRLDAVKSNAAAYLQHLCYRNDKVKTDVRKLKGIPVLVGLLDHPKKEVHLGACGALKNISFGRDQDNKIAIKNCDGVPALVRLLRKARDMDLTEVITGTLWNLSSHDSIKMEIVDHALHALTDEVIIPHSGWEREPNEDCKPRHIEWESVLTNTAGCLRNVSSERSEARRKLRECDGLVDALIFIVQAEIGQKDSDSKLVENCVCLLRNLSYQVHREIPQAERYQEAAPNVANNTGPHAASCFGAKKGKDEWFSRGKKPIEDPANDTVDFPKRTSPARGYELLFQPEVVRIYISLLKESKTPAILEASAGAIQNLCAGRWTYGRYIRSALRQEKALSAIADLLTNEHERVVKAASGALRNLAVDARNKELIGKHAIPNLVKNLPGGQQNSSWNFSEDTVISILNTINEVIAENLEAAKKLRETQGIEKLVLINKSGNRSEKEVRAAALVLQTIWGYKELRKPLEKEGWKKSDFQVNLNNASRSQSSHSYDDSTLPLIDRNQKSDKKPDREEIQMSNMGSNTKSLDNNYSTPNERGDHNRTLDRSGDLGDMEPLKGTTPLMQDEGQESLEEELDVLVLDDEGGQVSYPSMQKI
B3: in the experiment with 3×MBT domain of L3MBTL1 (setting [1]), the “3xMBT/D355N UNC Heavy” value amounted to 0.67 log base 2 and the “3xMBT/D355N UNC Light” value was found to be 2.07 log base 2. In addition, the “Relative to UNC0638 UNC Light” value with G9a and GLP (setting [2]) is recorded as −0.49 log base 2. Besides, the “Relative to UNC0638 Average” value with G9a and GLP (all values in log base 2) was −0.49 log base 2.
